For assay [1], the target named is SARS-CoV-2 S protein of gamma variant, on pseudotyped MLV particles (SARS-CoV-2, UniProt P0DTC2 14-1273). Description: cell-based or functional assay.
Assay [2] has as its target T1, SARS-CoV-2 S protein of B.1.617.2 (delta) variant, on pseudotyped MLV particles (SARS-CoV-2, UniProt P0DTC2 14-1273). Description: cell-based or functional assay.
Assay [3] has as its target T2, SARS-CoV-2 S protein of B.1.617 (kappa) variant, on pseudotyped MLV particles (SARS-CoV-2, UniProt P0DTC2 14-1273). As to the kind of experiment: cell-based or functional assay.
For assay [4], the target named is SARS-CoV-2 S protein of the wild-type, on pseudotyped lentiviral particles (SARS-CoV-2). As to the kind of experiment: cell-based or functional assay.
The target in assay [5] is SARS-CoV-2 S protein of beta variant, on pseudotyped MLV particles (SARS-CoV-2, UniProt P0DTC2 14-1273). As to the kind of experiment: cell-based or functional assay.
The target of assay [6] is T3, SARS-CoV-2 S protein of B.1.1.7 (alpha) variant, on pseudotyped MLV particles (SARS-CoV-2, UniProt P0DTC2 14-1273). As to the kind of experiment: cell-based or functional assay.
Assay [7] addresses T1, SARS-CoV-2 S protein of B.1.617.2 …. As to the kind of experiment: cell-based or functional assay. The source holds these as a separate data set.
In assay [8] the target is T2, SARS-CoV-2 S protein of B.1.617 (kappa) …. Description: cell-based or functional assay. The source holds these as a separate data set.
Assay [9] concerns the target T3, SARS-CoV-2 S protein of B.1.1.7 (alpha) …. Description: cell-based or functional assay. This is another data set of the same source.
The target in assay [10] is SARS-CoV-2 RBD protein (Fc-tagged) (SARS-CoV-2, UniProt P0DTC2 319-541).
For assay [11], the target named is T4, SARS-CoV-2 RBD, Alpha (B.1.1.7) variant (SARS-CoV-2, UniProt P0DTC2 319-541).
T4 construct: domain: RBD
Description: SPR, RBD immobilised, 1:1 model. (SPR reads the build-up and loss of mass on a sensor chip optically.)

The target of assay [12] is T5, SARS-CoV-2 RBD, Beta (B.1.351) variant (SARS-CoV-2, UniProt P0DTC2 319-541).
T5 construct: domain: RBD
As to the kind of experiment: SPR, RBD immobilised, 1:1 model.

Assay [13] deals with T6, SARS-CoV-2 RBD, Delta (B.1.617.2) variant (SARS-CoV-2, UniProt P0DTC2 319-541).
T6 construct: domain: RBD
As to the kind of experiment: SPR, RBD immobilised, 1:1 model.

The target in assay [14] is T7, SARS-CoV-2 RBD, Kappa (B.1.617.1) variant (SARS-CoV-2, UniProt P0DTC2 319-541).
T7 construct: domain: RBD
As to the kind of experiment: SPR, RBD immobilised, 1:1 model.

Assay [15] concerns the target T8, SARS-CoV-2 RBD, Gamma (P.1) variant (SARS-CoV-2, UniProt P0DTC2 319-541).
T8 construct: domain: RBD
As to the kind of experiment: SPR, RBD immobilised, 1:1 model.

For assay [16], the target named is T5, SARS-CoV-2 RBD, Beta (B.1.351) variant. Description: competition ELISA: RBD-His with antibody, binding to coated hACE2-Fc. Background: ELISA stands for enzyme-linked immunosorbent assay.
Assay [17] addresses T6, SARS-CoV-2 RBD, Delta (B.1.617.2) …. Described as above.
The target in assay [18] is T7, SARS-CoV-2 RBD, Kappa (B.1.617.1) …. Described as above.
Assay [19] deals with T8, SARS-CoV-2 RBD, Gamma (P.1) variant. The assay is described as above.
In assay [20] the target is T4, SARS-CoV-2 RBD, Alpha (B.1.1.7) variant. Description: SPR, RBD immobilised.
The target of assay [21] is T5, SARS-CoV-2 RBD, Beta (B.1.351) variant. As to the kind of experiment: SPR, RBD immobilised.
In assay [22] the target is T6, SARS-CoV-2 RBD, Delta (B.1.617.2) …. As to the kind of experiment: SPR, RBD immobilised.
The target in assay [23] is T7, SARS-CoV-2 RBD, Kappa (B.1.617.1) …. As to the kind of experiment: SPR, RBD immobilised.
Assay [24] has as its target T8, SARS-CoV-2 RBD, Gamma (P.1) variant. As to the kind of experiment: SPR, RBD immobilised.

As usually defined, the IC50 is the concentration that gives 50% inhibition. As a reminder, the Kd is the concentration at which binding is half-saturated. Low values mean a tighter complex, high ones a looser complex. For orientation: kon means a measure of how fast the partners come together.

B1: K202.A (bispecific antibody)
heavy: EVQLLESGGGLVQPGGSLRLSCAASGFTFSDYAMSWVRQAPGKGLEWVSWIYSGSGNKYYADSVKGRFTISRDNSKNTLYLQMNSLRAEDTAVYYCARFPIARTSNSQSSYDGMDVWGQGTLVTVSSASTKGPSVFPLAPCSRSTSESTAALGCLVKDYFPEPVTVSWNSGALTSGVHTFPAVLQSSGLYSLSSVVTVPSSSLGTKTYTCNVDHKPSNTKVDKRVESKYGPPCPPCPPCPAPEFLGGPSVFLFPPKPKDTLMISRTPEVTCVVVDVSQEDPEVQFNWYVDGVEVHNAKTKPREEQFNSTYRVVSVLTVLHQDWLNGKEYKCKVSNKGLPSSIEKGQPREPQVYTLPPSQEEMTKNQVSLTCLVKGFYPSDIAVEWESNGQPENNYKTTPPVLDSDGSFFLYSRLTVDKSRWQEGNVFSCSVMHEALHNHYTQKSLSLSLGK
light: QSVLTQPPSASGTPGQRVTISCSGSSSNIGSNAVSWYQQLPGTAPKLLIYADNKRPSGVPDRFSGSKSGTSASLAISGLRSEDEADYYCGAWDSSLNAYVFGGGTKLTVLVAAPSVFIFPPSDEQLKSGTASVVCLLNNFYPREAKVQWKVDNALQSGNSQESVTEQDSKDSTYSLSSTLTLSKADYEKHKVYACEVTHQGLSSPVTKSFNRGEC
scFv: EVQLLESGGGLVQPGGSLRLSCAASGFTFSSYDMSWVRQAPGKGLEWVSGISYSGGSTYYADSVKGRFTISRDNSKNTLYLQMNSLRAEDTAVYYCARDVNFVPLVTFDYWGQGTLVTVSSGGGGSGGGGSGGGGSQSVLTQPPSASGTPGQRVTLSCTGSSSNIGSNSVTWYQQLPGTAPKLLIYDDNQRPSGVPDRFSGSKSGTSASLAISGLRSEDEADYYCGTWDYSLSAYVFGGGTKLTVL
For B1, the “IC50 (nM), pseudotyped virus infection” value in assay [1] came out at 1.74 nM; in assay [2], 1.83 nM; in [3], 0.24 nM; in assay [4], 0.27 nM; in assay [5] it was 0.46 nM; in [6], 0.18 nM.

B2: K202.B (bispecific antibody)
heavy: EVQLLESGGGLVQPGGSLRLSCAASGFTFSDYAMSWVRQAPGKGLEWVSWIYSGSGNKYYADSVKGRFTISRDNSKNTLYLQMNSLRAEDTAVYYCARFPIARTSNSQSSYDGMDVWGQGTLVTVSSASTKGPSVFPLAPCSRSTSESTAALGCLVKDYFPEPVTVSWNSGALTSGVHTFPAVLQSSGLYSLSSVVTVPSSSLGTKTYTCNVDHKPSNTKVDKRVESKYGPPCPPCPPCPAPEFLGGPSVFLFPPKPKDTLMISRTPEVTCVVVDVSQEDPEVQFNWYVDGVEVHNAKTKPREEQFNSTYRVVSVLTVLHQDWLNGKEYKCKVSNKGLPSSIEKGQPREPQVYTLPPSQEEMTKNQVSLTCLVKGFYPSDIAVEWESNGQPENNYKTTPPVLDSDGSFFLYSRLTVDKSRWQEGNVFSCSVMHEALHNHYTQKSLSLSLGK
light: QSVLTQPPSASGTPGQRVTISCSGSSSNIGSNAVSWYQQLPGTAPKLLIYADNKRPSGVPDRFSGSKSGTSASLAISGLRSEDEADYYCGAWDSSLNAYVFGGGTKLTVLVAAPSVFIFPPSDEQLKSGTASVVCLLNNFYPREAKVQWKVDNALQSGNSQESVTEQDSKDSTYSLSSTLTLSKADYEKHKVYACEVTHQGLSSPVTKSFNRGEC
scFv: EVQLLESGGGLVQPGGSLRLSCAASGFTFSSYDMSWVRQAPGKGLEWVSGISYSGGSTYYADSVKGRFTISRDNSKNTLYLQMNSLRAEDTAVYYCARDVNFVPLVTFDYWGQGTLVTVSSGGGGSGGGGSGGGGSQSVLTQPPSASGTPGQRVTLSCTGSSSNIGSNSVTWYQQLPGTAPKLLIYDDNQRPSGVPDRFSGSKSGTSASLAISGLRSEDEADYYCGTWDYSLSAYVFGGGTKLTVL
For B2, the “IC50 (nM), pseudotyped virus infection” value in [1] stood at 1.04 nM; in [2], 0.13 nM; in assay [3], 0.05 nM; in assay [4], 0.16 nM; in assay [5], 0.1 nM; in [6] it was 0.15 nM.

B3: RD3 (antibody, V domains shown)
VH: EVQLLESGGGLVQPGGSLRLSCAASGFTFSDYAMSWVRQAPGKGLEWVSWIYSGSGNKYYADSVKGRFTISRDNSKNTLYLQMNSLRAEDTAVYYCARFPIARTSNSQSSYDGMDVWGQGTLVTVSS
VL: QSVLTQPPSASGTPGQRVTISCSGSSSNIGSNAVSWYQQLPGTAPKLLIYADNKRPSGVPDRFSGSKSGTSASLAISGLRSEDEADYYCGAWDSSLNAYVFGGGTKLTVL
notes: also called K102.1
Regarding B3, the “IC50 (nM), pseudotyped virus infection” value in assay [2] was 4.48 nM; in [6], 6.16 nM. In addition, the entries for the “IC50 (nM), pseudovirus neutralization, luciferase in 293T/hACE2 cells” value in [7], in [8] and in [9] were 4.48 nM, 94.8 nM and 6.16 nM, respectively.

B4: RG6 (antibody, V domains shown)
VH: EVQLLESGGGLVQPGGSLRLSCAASGFTFSDYSMSWVRQAPGKGLEWVSGIYHSDGSKYYADSVKGRFTISRDNSKNTLYLQMNSLRAEDTAVYYCARFDPVFDYWGQGTLVTVSS
VL: QSVLTQPPSASGTPGQRVTISCTGSSSNIGSNAVNWYQQLPGTAPKLLIYADSNRPSGVPDRFSGSKSGTSASLAISGLRSEDEADYYCGAWDASLSAYVFGGGTKLTVL
For B4, the IC50 in assay [10] is 84 nM. This counts as double-digit nanomolar.

B5: RB6 (antibody, V domains shown)
VH: EVQLLESGGGLVQPGGSLRLSCAASGFTFSSYDMSWVRQAPGKGLEWVSGISYSGGSTYYADSVKGRFTISRDNSKNTLYLQMNSLRAEDTAVYYCARDVNFVPLVTFDYWGQGTLVTVSS
VL: QSVLTQPPSASGTPGQRVTLSCTGSSSNIGSNSVTWYQQLPGTAPKLLIYDDNQRPSGVPDRFSGSKSGTSASLAISGLRSEDEADYYCGTWDYSLSAYVFGGGTKLTVL
notes: also called K102.2
Take B5: the dissociation constant (Kd) in assay [11] was 3.62 nM; in assay [12], 1.6 nM; in [13], 1.53 nM; in [14], 1.68 nM; in [15] it was 2.07 nM; in assay [20], 3.62 nM. In addition, the dissociation constant Kd in assay [21] turned out to be 1.6 nM; in [22] it was 1.53 nM; in [23] it was 1.68 nM; in assay [24], 2.07 nM. The kon came out at 154000 M⁻¹ s⁻¹ in assay [11]; 492000 M⁻¹ s⁻¹ in [12]; 333000 M⁻¹ s⁻¹ in [13]; 407000 M⁻¹ s⁻¹ in [14]; 454000 M⁻¹ s⁻¹ in assay [15]; 154000 M⁻¹ s⁻¹ in assay [20]. Moreover, the kon in assay [21] came out at 492000 M⁻¹ s⁻¹; in assay [22], 333000 M⁻¹ s⁻¹; in [23], 407000 M⁻¹ s⁻¹; in assay [24], 454000 M⁻¹ s⁻¹. In addition, the IC50 in assay [16] was determined as 0.86 nM; in assay [17], 1.14 nM; in assay [18], 0.4 nM; in assay [19], 3.23 nM.

The values above are taken from patent US20240043508A1 (KOOKMIN UNIVERSITY INDUSTRY ACADEMY COOPERATION FOUNDATION, published 2024).
